Results taken from patent US20240100159A1, “USE OF IL-7R-ALPHA-GAMMA AGONIST PEPTIDES IN CELL MANUFACTURING” (MEDIKINE, INC., priority 2022, published 2024).

T1: hu-IL-7Rγc subunit (human), P31785
T1 chain: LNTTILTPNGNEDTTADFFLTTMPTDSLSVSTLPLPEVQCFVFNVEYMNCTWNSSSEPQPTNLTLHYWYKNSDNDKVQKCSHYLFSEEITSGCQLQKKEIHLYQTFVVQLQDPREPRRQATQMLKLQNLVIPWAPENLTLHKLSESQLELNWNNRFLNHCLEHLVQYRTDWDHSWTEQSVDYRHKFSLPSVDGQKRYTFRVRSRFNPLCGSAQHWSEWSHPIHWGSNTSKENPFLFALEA


Target: T1, hu-IL-7Rγc subunit (human), P31785

IC50, < 100 µM:
RTEVECEDWEGVELCWL (modifications not checked) [SEQ ID NO 322]
IECEEWRGVELCWQ (modifications not checked) [SEQ ID NO 247]
PEGREVVVCRDWYGVELCWQ (modifications not checked) [SEQ ID NO 248]
IWGRTVVECQDWEGVELCWQ (modifications not checked) [SEQ ID NO 249]
HEAREVVVCQDWYGVELCWQ (modifications not checked) [SEQ ID NO 251]
TANQTVVECQVWGGVELCWQ (modifications not checked) [SEQ ID NO 253]
VECQEWGGVELCWC (modifications not checked) [SEQ ID NO 254]
IVCEEWRGVELCWL (modifications not checked) [SEQ ID NO 256]
DFERSYVVCQDWDGVELCWI (modifications not checked) [SEQ ID NO 257]
SAPERWVECEDWQGVELCWV (modifications not checked) [SEQ ID NO 259]
DVVCQNWEGVDLCWH (modifications not checked) [SEQ ID NO 262]
SAGRQEVVCQDWNGVELCWI (modifications not checked) [SEQ ID NO 263]
GQGREVVVCHDWYGVELCWQ (modifications not checked) [SEQ ID NO 264]
DWRRSVVECQDWYGVELCWQ (modifications not checked) [SEQ ID NO 265]
DVVCQNWDGVDLCWH (modifications not checked) [SEQ ID NO 266]
TLGRTVVECQDWGGVELCWQ (modifications not checked) [SEQ ID NO 267]
IVCEDWRGVELCWI (modifications not checked) [SEQ ID NO 269]
GDRPKEVVCEDWKGVELCWI (modifications not checked) [SEQ ID NO 271]
ERPRSFIECQEWEGVELCWL (modifications not checked) [SEQ ID NO 272]
ANQNTVVECQDWHGVELCWQ (modifications not checked) [SEQ ID NO 274]
TWNMSELECQDWNGVEICWH (modifications not checked) [SEQ ID NO 277]
GNDDSYIVCEEWKGVELCWI (modifications not checked) [SEQ ID NO 278]
LNRSVWIECEEYEGVELCWL (modifications not checked) [SEQ ID NO 280]
KSQVECQDWEGVELCWVVSE (modifications not checked) [SEQ ID NO 285]
KITVECQDWDGVELCWPTWI (modifications not checked) [SEQ ID NO 286]
RPQIECQEWQGVELCWTREE (modifications not checked) [SEQ ID NO 287]
VSCQEWDGVELCWVDGDLAA (modifications not checked) [SEQ ID NO 288]
IMCQEWDGVELCWLERDKAN (modifications not checked) [SEQ ID NO 289]
GLEIACEDWYGVELCWLRRA (modifications not checked) [SEQ ID NO 290]
GYGVLCQEWQGVELCWPVQREAGV (modifications not checked) [SEQ ID NO 291]
PYGVVCQDWAGVELCWVENR (modifications not checked) [SEQ ID NO 292]
INCQTWNGVELCWVDEGLYQ (modifications not checked) [SEQ ID NO 294]
RVQVECEDWNGVELCWPVRV (modifications not checked) [SEQ ID NO 296]
DRQVVCEEWDGVELCWIEES (modifications not checked) [SEQ ID NO 297]
RPEVVCQEWEGVELCWISPL (modifications not checked) [SEQ ID NO 299]
RLGVECQEWEGVDLCWISAF (modifications not checked) [SEQ ID NO 300]
TDEVSCQEWEGVELCWIERQ (modifications not checked) [SEQ ID NO 303]
PVEVRCQEWEGVELCWVVGI (modifications not checked) [SEQ ID NO 304]
GPEVVCEEFNRVELCWVEYN (modifications not checked) [SEQ ID NO 305]
KYIVECQEWGGVELCWPEMV (modifications not checked) [SEQ ID NO 306]
VVCQEWEGVELCWQTGPGAHA (modifications not checked) [SEQ ID NO 308]
IVCEEYNGVELCWVETSVKP (modifications not checked) [SEQ ID NO 309]
EQQVVCQEWNGVELCWIEAG (modifications not checked) [SEQ ID NO 310]
QLGVECQNWRGVELCWVSEI (modifications not checked) [SEQ ID NO 311]
TAEVVCQEWDGVELCWIEVL (modifications not checked) [SEQ ID NO 312]
SPSIVCEEWAGVELCWVDYS (modifications not checked) [SEQ ID NO 313]
AVCQDWYGVELCWCMQDILD (modifications not checked) [SEQ ID NO 314]
VECEEWGGVELCWLADEVMW (modifications not checked) [SEQ ID NO 315]
HSTVICQDWDGVELCWIEND (modifications not checked) [SEQ ID NO 316]
SVEVVCEEWHGVELCWPVFI (modifications not checked) [SEQ ID NO 318]
RWAVSCQDWQGIELCWPEWD (modifications not checked) [SEQ ID NO 319]
